Data published in patent publication US20120172306A1, “Use of HASF as a Protective Agent Against Ischemic Tissue Damage” (Duke University, priority 2009, published 2012).

How the values were obtained:
[1] = test system: rat myocardial infarction; assay: In vivo ischemia/reperfusion injury, infarct size (TTC/Evans Blue); settings: 1 μg intramyocardial injection, 30 min ischemia, 24 h reperfusion
Description: FIG. 5A is a series of photographs and a bar graph showing infarct area. Rats were randomly divided into PBS control group and HASF injected group, n=10 for each group. The reperfusion injury model was achieved by 30 min coronary ligation with the immediate injection of vehicle PBScontrol or 1 μg of […] recombinant protein into the myocardium area below ligation suture, followed by loosening of the ligation suture to achieve reperfusion injury. […] The mean of % of infarct area for all sections of each heart was calculated blindly for comparisons using ImageJ computer software. Representative photos from each group are shown.
Female Sprague-Dawley rats were used for all in vivo experiments. A midsternal thoracotomy was performed to expose the anterior surface of the heart after anesthesia. […]
For analysis of infarct size, 24 h after reperfusion, the LAD was re-ligated and ˜300 μl of 1% Evans Blue in PBS (pH 7.4) was retrogradely infused into the heart in a 2-3 min period to delineate the non-ischemic area. […] Area at risk (AAR) was calculated as the left ventricular total area excluding Evans Blue dye positive area, and % infarct area was calculated as the % of infarct area/AAR. The mean of % of infarct area for all sections of each heart was calculated blindly for comparisons using ImageJ computer software, with 10 rats in each group.

[2] = test system: rat myocardial infarction; assay: In vivo ischemia/reperfusion injury, fibrosis (Masson's trichrome); settings: 1 μg intramyocardial, 4 weeks after ischemia/reperfusion
Description: FIG. 5C is a series of photographs and a bar graph showing fibrosis. For fibrosis analysis, animals were sacrificed 4 weeks after the initial ischemia/reperfusion injury and serial cryosections of 5 μm thick were made immediately below the ligation area, 10 sections for each heart were analyzed. HASF injected group N=8 rats. PBS injected control group N=6. Brilliant blue color stained collagen area was quantified using ImageJ computer software and the mean of % fibrosis was calculated as collagen positive area/total area. *** P<0.001.
Female Sprague-Dawley rats were used for all in vivo experiments. A midsternal thoracotomy was performed to expose the anterior surface of the heart after anesthesia. The proximal left […] coronary artery (LAD) was identified and a 6.0 suture (Ethicon) was placed around the artery and surrounding myocardium. […]
For fibrosis analysis, animals were sacrificed 4 weeks after the initial 30 min ischemia/24 h reperfusion injury and serial cyrosections of 5 μm thick were made immediately below the ligation area, 10 sections for each heart analyzed, and with 8 rats in HASF protein injected group and 6 rats in PBS injected control group. […] Brilliant blue color stained collagen area was quantified using ImageJ computer software and the mean of % fibrosis was calculated as collagen positive area/total area.

[3] = test system: PKC, Raf, ERK 1/2, PDK1 phosphorylation in adult rat cardiomyocytes; assay: Western blot analysis of signaling protein phosphorylation (PKC/ERK pathway); assay type: cell-based
Description: FIG. 3A is a photograph of an electrophoretic gel. HASF activates the PKC pathway. A. Western blots analysis for various signaling proteins. Serum-starved adult rat cardiomyocytes were stimulated with 100 nM HASF recombinant protein for various time courses. Cell lysate was collected and the proteins were resolved by SDS-PAGE. Insulin from bovine pancreas was used as a positive control. min: minutes of treatment.
FIG. 3B is a photograph of an immunoblot. Serum-starved adult rat cardiomyocytes were pre-treated with 3 μM PKC inhibitors BIM, Gö6976, or Gö6983 for 30 minutes, then stimulated with 100 nM HASF recombinant protein for 5-10 min and cells were harvested. Total cell lysates were used to analyze the levels of ERK1/2 phosphorylation by western blot analysis.
FIG. 4A is a photograph of an immunoblot. Western blot analysis for PKC E and PKC delta phosphorylation on total cell lysates from serum-starved adult rat cardiomyocytes stimulated with 100 nM HASF recombinant protein at 5 and 30 min. HASF b1 and b2 represent different batches of recombinant protein. PMA was used as positive control.
FIG. 4B is a photograph of an immunoblot. Western blot analysis for ERK1/2 phosphorylation on total cell lysates from adult rat cardiomyocytes pre-treated with 10 pM PKC epsilon translocation inhibitor peptide for 20 min, then 100 nM HASF recombinant protein was added for 5 min or 10 min.
FIGS. 8A-B are photographs of immunoblots. Western blot analysis for PKC a/b and PKC theta phosphorylation on total cell lysates from serum-starved adult rat cardiomyocytes stimulated with 100 nM HASF recombinant protein for the indicated times. HASF batch 1 and 2 represent different batches of recombinant protein. PMA was used as positive control.
Rabbit polyclonal antibodies for phospho-pan PKC, phospho-ERK1/2, phospho-raf, phosphor-PDK1, total Akt were obtained from Cell Signaling Tech. Rabbit polyclonal antibody for phospho-PKC epsilon, phospho-Bad, and GAPDH was obtained from Abeam. HRP-conjugated goat anti-rabbit secondary antibody was obtained from Cell Signaling Tech.

[4] = 100 nM, within 5-10 minutes of treatment

B1: HASF: Hypoxia regulated Akt MSC Factor, secreted protein encoded by C3orf58; recombinant human protein without N-signal sequence, SEQ ID NO:1 or 2 (protein, UniProt Q8NDZ4 36-430, looked up)
Divergent protein kinase …: LASWQRNELTDRRFLQLNKCPACFGTSWCRRFLNGQVVFEAWGRLRLLDFLNVKNVYFAQYGEPREGGRRRVVLKRLGSQRELAQLDQSICKRATGRPRCDLLQAMPRTEFARLNGDVRLLTPEAVEGWSDLVHCPSQRLLDRLVRRYAETKDSGSFLLRNLKDSERMQLLLTLAFNPEPLVLQSFPSDEGWPFAKYLGACGRMVAVNYVGEELWSYFNAPWEKRVDLAWQLMEIAEQLTNNDFEFALYLLDVSFDNFAVGPRDGKVIIVDAENVLVADKRLIRQNKPENWDVWYESKFDDCDKEACLSFSKEILCARATVDHNYYAVCQNLLSRHATWRGTSGGLLHDPPSEIAKDGRLEALLDECANPKKRYGRFQAAKELREYLAQLSNNVR
modifications: 6xHis tag
With B1 as the molecule, how does the “reduction in the infarct size” value [1] read?
Its value is roughly 58%.

What about the “reduction of infarct fibrosis compared to control untreated animals” value [2] of the same molecule?
Its value is 61%.

And the “scar (myocardial fibrosis)” value [2]?
The value was 5.7±1.5 % of LV area.

What about the “activity (phosphorylation) of the other PKC isoforms tested (PKC α/β, σ, σ/λ, θ)” value ([3]; 100 nM HASF) of the same molecule?
Its value is “did not affect”.

What about the “phosphorylation of PKCe” value ([3]; 100 nM HASF, 5 and 30 min) of the same molecule?
The value was “increased the phosphorylation of PKCe selectively”.

And the “phosphorylation of PDK1” value ([3]; 100 nM, 0-60 minutes)?
Its value is “not increased”.

And the “phosphorylation of ERK 1/2” value [3, 4]?
Its value is “increased dramatically”.

What about the “phosphorylation of PKC” value [3, 4] of the same molecule?
The value was “increased dramatically”.

And the “phosphorylation of Raf” value [3, 4]?
Its value is “increased dramatically”.
